Reference: IntAct's records for PubMed 20494986

B1: Type 3 secretion system chaperone PscE (Pseudomonas aeruginosa (strain ATCC 15692 / PAO1 / 1C / PRS 101 / LMG 12228)), Q9I317 (parent)
chain: MMTALETRLSVADGTHAAALRQRLQAALAECRRELARGACPEHFQFLQQQARALEGGLGILSQLTED
partner: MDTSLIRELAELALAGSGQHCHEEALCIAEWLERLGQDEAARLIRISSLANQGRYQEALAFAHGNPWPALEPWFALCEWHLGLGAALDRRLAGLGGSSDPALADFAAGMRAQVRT
B2: Type 3 secretion system chaperone PscG (Pseudomonas aeruginosa (strain ATCC 15692 / PAO1 / 1C / PRS 101 / LMG 12228)), P95435 (parent)
chain: B1 partner
partner: B1 chain

Variants of: B1
Conditions: with pscg_pseae pscG, P95435

Row | Variant | effect of a mutation on the interaction
1 | L20S | decreasing interaction
2 | G57D | disrupting interaction

Variants of: B2
Conditions: with psce_pseae pscE, Q9I317

Row | Variant | effect of a mutation on the interaction
3 | L5S | decreasing interaction
4 | I28S | decreasing interaction
5 | L9S | decreasing interaction
6 | I28S;W31S | decreasing interaction
7 | L5S;L9S | decreasing interaction
